This note sets out measurements from publication PMC2749713 (Molecular cell, 2009).

No end group written: not given here.

The target in one assay is PP2A C subunit (Cα) (human, UniProt P67775 1-309). As to the kind of experiment: crystal structure.
The next assay addresses AαB56γCα PP2A holoenzyme (human, UniProt P30153 2-589; Q13362 1-524; P67775 1-309). As to the kind of experiment: SEC + other: dynamic light scattering.
In assay [1] the target is FLAG-tagged MBP-Sgo1(47-105) (human, UniProt Q5FBB7 47-105). As to the kind of experiment: pull-down.
The target of assay [2] is FLAG-Sgo1(51-105) peptide (human, UniProt Q5FBB7 51-105). As to the kind of experiment: pull-down.
Assay [3] addresses FLAG-tagged MBP-Sgo1(47-105) Y57A/K62A (dimerization assay) (human, UniProt Q5FBB7 47-105, Y57A | K62A). As to the kind of experiment: pull-down.
For assay [4], the target named is FLAG-tagged MBP-Sgo1(47-105) N60A/K62A (dimerization assay) (human, UniProt Q5FBB7 47-105, N60A | K62A). As to the kind of experiment: pull-down.
In assay [5] the target is FLAG-tagged MBP-Sgo1(47-105) Y57A/N60A (dimerization assay) (human, UniProt Q5FBB7 47-105, Y57A | N60A). As to the kind of experiment: pull-down.
Assay [6] deals with FLAG-tagged MBP-Sgo1(47-105) N61I (dimerization assay) (human, UniProt Q5FBB7 47-105, N61I). As to the kind of experiment: pull-down.

Chain of AαB56γCα PP2A holoenzyme (P30153 2-589, chain 1 of 3): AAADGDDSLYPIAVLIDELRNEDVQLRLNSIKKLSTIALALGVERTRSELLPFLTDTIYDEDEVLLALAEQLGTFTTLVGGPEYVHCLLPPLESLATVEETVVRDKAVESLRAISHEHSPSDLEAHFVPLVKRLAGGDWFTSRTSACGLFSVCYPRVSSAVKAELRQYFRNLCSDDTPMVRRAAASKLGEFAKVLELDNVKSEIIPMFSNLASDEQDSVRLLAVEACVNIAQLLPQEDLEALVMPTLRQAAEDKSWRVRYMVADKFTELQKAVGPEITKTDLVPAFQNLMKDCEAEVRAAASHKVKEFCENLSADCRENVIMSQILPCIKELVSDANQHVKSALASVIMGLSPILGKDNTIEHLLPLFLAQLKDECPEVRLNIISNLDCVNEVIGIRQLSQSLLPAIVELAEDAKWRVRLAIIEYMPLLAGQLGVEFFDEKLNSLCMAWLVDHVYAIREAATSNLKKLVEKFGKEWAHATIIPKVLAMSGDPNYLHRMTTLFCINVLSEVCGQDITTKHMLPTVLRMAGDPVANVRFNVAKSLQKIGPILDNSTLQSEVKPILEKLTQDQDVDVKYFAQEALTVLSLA
Chain of AαB56γCα PP2A holoenzyme (Q13362 whole entry, chain 2 of 3): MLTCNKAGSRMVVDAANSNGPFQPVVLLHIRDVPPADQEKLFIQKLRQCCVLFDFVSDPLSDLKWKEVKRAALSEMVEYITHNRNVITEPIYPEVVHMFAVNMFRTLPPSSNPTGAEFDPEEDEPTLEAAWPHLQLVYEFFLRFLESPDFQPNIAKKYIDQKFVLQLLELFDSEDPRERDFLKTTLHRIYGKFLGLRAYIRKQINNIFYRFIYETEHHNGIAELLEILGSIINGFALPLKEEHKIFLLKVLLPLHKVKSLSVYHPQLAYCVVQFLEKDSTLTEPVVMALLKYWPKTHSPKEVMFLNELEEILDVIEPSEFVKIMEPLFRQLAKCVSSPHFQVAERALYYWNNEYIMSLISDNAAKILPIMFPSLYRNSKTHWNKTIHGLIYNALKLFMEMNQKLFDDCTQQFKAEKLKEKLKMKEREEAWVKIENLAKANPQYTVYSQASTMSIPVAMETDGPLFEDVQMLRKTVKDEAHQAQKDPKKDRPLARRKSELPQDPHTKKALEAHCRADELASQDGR
Chain of AαB56γCα PP2A holoenzyme (P67775 whole entry, chain 3 of 3): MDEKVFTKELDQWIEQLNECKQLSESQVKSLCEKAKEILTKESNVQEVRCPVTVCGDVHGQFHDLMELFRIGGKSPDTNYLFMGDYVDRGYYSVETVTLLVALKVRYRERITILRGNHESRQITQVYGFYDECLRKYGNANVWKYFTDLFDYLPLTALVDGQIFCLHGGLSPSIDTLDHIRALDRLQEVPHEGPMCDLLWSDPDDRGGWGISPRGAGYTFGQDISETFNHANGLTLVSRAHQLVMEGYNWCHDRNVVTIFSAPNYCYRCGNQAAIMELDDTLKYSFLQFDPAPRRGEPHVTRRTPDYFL
Chain of PP2A C subunit (Cα) (P67775 whole entry): as the sequence (P67775 whole entry, chain 3 of 3) above

Regarding STLLKNYQDNNKMLVLALENEKSKVKEAQDIILQLRKECYYLTCQL (peptide, UniProt Q5FBB7 51-96, looked up) [Sgo1(51-96) peptide], the binding result in the assay with PP2A C subunit (Cα) was “binds”.

B1: MBP-Sgo1(51-105) (domain or fragment, human, UniProt Q5FBB7 51-105, looked up)
chain: STLLKNYQDNNKMLVLALENEKSKVKEAQDIILQLRKECYYLTCQLYALKGKLTS
As for B1, in the assay with AαB56γCα PP2A holoenzyme, the stoichiometry N (usually a count of units in the complex or per binding partner) turned out to be 2 Sgo1 per PP2A holoenzyme. The binding result in assay [1] is on record as “binds”.

B2: Sgo1(51-105) (peptide, UniProt Q5FBB7 51-105, looked up)
chain: STLLKNYQDNNKMLVLALENEKSKVKEAQDIILQLRKECYYLTCQLYALKGKLTS
As to B2, the binding result in assay [2] was “binds”. Also, in the assay with AαB56γCα PP2A holoenzyme, the “stoichiometry N” value stood at 2 Sgo1 per PP2A holoenzyme.

B3: MBP-Sgo1(51-105) Y57A/K62A, untagged (dimerization assay) (domain or fragment, human, UniProt Q5FBB7 51-105, looked up)
chain: STLLKNAQDNNAMLVLALENEKSKVKEAQDIILQLRKECYYLTCQLYALKGKLTS
modifications: cysteine pairing not given here; also: MBP fusion
Regarding B3, the binding result in assay [3] is listed as “binds”.

B4: MBP-Sgo1(51-105) N60A/K62A, untagged (dimerization assay) (domain or fragment, human, UniProt Q5FBB7 51-105, looked up)
chain: STLLKNYQDANAMLVLALENEKSKVKEAQDIILQLRKECYYLTCQLYALKGKLTS
modifications: cysteine pairing not given here; also: MBP fusion
On to B4, for which, in assay [4], the binding result is listed as “binds”.

B5: MBP-Sgo1(51-105) Y57A/N60A, untagged (dimerization assay) (domain or fragment, human, UniProt Q5FBB7 51-105, looked up)
chain: STLLKNAQDANKMLVLALENEKSKVKEAQDIILQLRKECYYLTCQLYALKGKLTS
modifications: cysteine pairing not given here; also: MBP fusion
On to B5, for which, in assay [5], the binding result is listed as “binds”.

B6: MBP-Sgo1(51-105) N61I, untagged (dimerization assay) (domain or fragment, human, UniProt Q5FBB7 51-105, looked up)
chain: STLLKNYQDNIKMLVLALENEKSKVKEAQDIILQLRKECYYLTCQLYALKGKLTS
modifications: cysteine pairing not given here; also: MBP fusion
Regarding B6, the binding result in assay [6] is reported as “binds”.
